From article PMC10988696, “FLIM‐FRET‐based analysis of S100A11/annexin interactions in living cells” (FEBS Open Bio, 2024)
Read-outs that look alike come from different tables or passages of the source.

Experiments:
Assay in all cases: FRET or BRET; FLIM-FRET (EGFP donor lifetime, mCherry acceptor) in living U2OS cells co-transfected with both constructs, imaged in PBS 42-45 h after transfection, normal cytosolic calcium; E = 1 - tauDA/tauD from amplitude-weighted mean lifetimes
EGFP-ANXA2 = biological target: T1, EGFP-ANXA2 (human, UniProt P07355 1-339)
T1 construct: human annexin A2 (ANXA2) with the fluorescent protein tag in the altered orientation (EGFP-ANXA2); The cloning of this orientation is not described in the methods; source: U2OS or HEK293T cells, transfected (calcium phosphate), in living cells; not shown: EGFP, N-terminal, kept

ANXA1-EGFP = biological target: T2, ANXA1-EGFP (human, UniProt P04083 1-346); conditions: partners not purified
T2 construct: human annexin A1, PCR amplified from A431 cDNA; cloned in pEGFP-N1 (XhoI, BamHI); End of the tag read from the label ANXA1-EGFP and the vector pEGFP-N1; also called annexin A1; source: U2OS cells, transfected (calcium phosphate), in living cells; not shown: EGFP, C-terminal, kept
T2 sequence (looked up): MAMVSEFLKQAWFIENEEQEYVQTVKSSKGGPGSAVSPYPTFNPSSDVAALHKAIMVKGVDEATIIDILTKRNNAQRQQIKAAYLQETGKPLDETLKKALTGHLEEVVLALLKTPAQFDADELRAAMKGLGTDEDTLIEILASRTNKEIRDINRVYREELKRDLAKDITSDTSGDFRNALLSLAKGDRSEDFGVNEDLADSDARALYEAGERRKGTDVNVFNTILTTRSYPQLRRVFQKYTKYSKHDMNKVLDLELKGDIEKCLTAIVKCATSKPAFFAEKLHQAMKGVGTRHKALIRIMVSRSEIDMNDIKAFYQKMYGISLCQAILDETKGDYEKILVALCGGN

ANXA4-EGFP = biological target: T3, ANXA4-EGFP (human, UniProt P09525 1-319); conditions: partners not purified
T3 construct: human annexin A4, PCR amplified from A431 cDNA; cloned in pEGFP-N1 (HindIII, BamHI); also called annexin A4; source: U2OS cells, transfected (calcium phosphate), in living cells; not shown: EGFP, C-terminal, kept
T3 sequence (looked up): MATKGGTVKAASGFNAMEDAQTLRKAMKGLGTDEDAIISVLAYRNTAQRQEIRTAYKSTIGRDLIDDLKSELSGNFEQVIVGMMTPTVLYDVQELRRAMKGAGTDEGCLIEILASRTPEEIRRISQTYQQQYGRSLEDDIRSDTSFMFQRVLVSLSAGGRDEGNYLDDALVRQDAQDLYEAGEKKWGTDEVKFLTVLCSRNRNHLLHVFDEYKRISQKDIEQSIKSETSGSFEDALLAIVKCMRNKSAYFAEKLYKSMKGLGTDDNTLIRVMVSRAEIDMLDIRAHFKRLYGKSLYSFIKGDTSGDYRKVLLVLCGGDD

ANXA2-EGFP = biological target: T4, ANXA2-EGFP (human, UniProt P07355 1-339); conditions: partners not purified
T4 construct: human annexin A2 (ANXA2); EGFP is the FRET donor; also called annexin A2; source: U2OS cells, transfected (calcium phosphate), in living cells; not shown: EGFP, C-terminal, kept

AnxA6-EGFP = biological target: T5, AnxA6-EGFP (rat, UniProt P48037 1-673); conditions: partners not purified
T5 construct: rat annexin A6; plasmid provided by C; End of the tag read from the label AnxA6-EGFP; also called rat annexin A6; source: U2OS cells, transfected (calcium phosphate), in living cells; not shown: EGFP, C-terminal, kept
T5 sequence (looked up): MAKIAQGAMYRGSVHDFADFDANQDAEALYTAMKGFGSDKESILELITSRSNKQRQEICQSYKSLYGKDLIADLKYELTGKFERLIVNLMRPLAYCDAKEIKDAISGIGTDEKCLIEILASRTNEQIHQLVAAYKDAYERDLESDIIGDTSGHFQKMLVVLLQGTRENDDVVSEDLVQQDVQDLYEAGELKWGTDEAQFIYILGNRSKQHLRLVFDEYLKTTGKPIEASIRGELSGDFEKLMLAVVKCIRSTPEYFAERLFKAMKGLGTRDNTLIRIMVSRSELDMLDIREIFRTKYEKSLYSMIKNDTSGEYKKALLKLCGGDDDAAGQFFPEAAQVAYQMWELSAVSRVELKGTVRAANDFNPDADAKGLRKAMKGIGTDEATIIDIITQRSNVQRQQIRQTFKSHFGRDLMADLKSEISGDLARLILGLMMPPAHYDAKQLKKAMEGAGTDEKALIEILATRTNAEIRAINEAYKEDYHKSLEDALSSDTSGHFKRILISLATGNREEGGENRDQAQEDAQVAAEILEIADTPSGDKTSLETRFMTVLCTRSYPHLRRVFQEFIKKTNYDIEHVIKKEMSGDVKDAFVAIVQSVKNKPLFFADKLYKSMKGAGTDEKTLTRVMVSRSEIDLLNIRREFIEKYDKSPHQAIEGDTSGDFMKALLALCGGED

T1 sequence (P07355 whole entry): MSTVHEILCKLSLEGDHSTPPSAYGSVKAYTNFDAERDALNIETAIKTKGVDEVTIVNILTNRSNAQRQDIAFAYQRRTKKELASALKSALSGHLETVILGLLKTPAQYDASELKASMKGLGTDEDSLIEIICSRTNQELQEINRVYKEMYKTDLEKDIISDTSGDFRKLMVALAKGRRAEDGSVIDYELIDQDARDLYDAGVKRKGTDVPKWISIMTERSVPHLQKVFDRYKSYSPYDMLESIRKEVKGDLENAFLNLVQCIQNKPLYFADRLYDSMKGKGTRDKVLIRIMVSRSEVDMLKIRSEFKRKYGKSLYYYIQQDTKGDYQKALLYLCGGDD
T4 sequence (P07355 whole entry): as above

An FRET efficiency (E) (EGFP-ANXA2) of 3.7% was found for “S100A11ΔCa-mCherry (from UniProt P31949 1-105) (natural protein)” in this work.

B1: S100A11-mCherry (natural protein, human, UniProt P31949 1-105, looked up)
chain: MAKISSPTETERCIESLIAVFQKYAGKDGYNYTLSKTEFLSFMNTELAAFTKNQKDPGVLDRMMKKLDTNSDGQLDFSEFLNLIGGLAMACHDSFLKAVPSQKRT
notes: human S100A11 wild type; cloned in pmCherry-N1 (EcoRI, BamHI); End of the tag read from the label S100A11-mCherry and the vector pmCherry-N1; also called S100A11wt; wild-type S100A11-mCherry; source: U2OS or HEK293T cells, transfected (calcium phosphate), in living cells; not shown: mCherry, C-terminal, kept
With B1 the “FRET efficiency (E)” value (ANXA1-EGFP) was 5.3%, the “FRET efficiency (E)” value (ANXA4-EGFP) was ~5% and the “FRET efficiency (E)” value (EGFP-ANXA2; partners not purified) was ~9%. The “FRET efficiency (E)” value (ANXA2-EGFP) was 7.5% and the “FRET efficiency (E)” value (AnxA6-EGFP) was ~6%.
